Source: publication PMC11643483, “Chip-Scale Aptamer Sandwich Assay Using Optical Waveguide-Assisted Surface-Enhanced Raman Spectroscopy”

Molecular target: cardiac troponin I (cTnI) (UniProt P19429 2-210)
Test: SERS aptamer sandwich assay on waveguide; 1 ng/mL cTnI stock (25 uL mixed with 50 uL reporter NPs); sandwich with N2-AuNP; no cTnI-free control described; aptamer-AuNPs resuspended in PBS; cTnI incubated 30 min with reporter NPs, then 1 h on waveguide, rinsed with buffer; pH and temperature not stated
Details: protein: commercial

cardiac troponin I (cTnI), sequence (P19429 2-210): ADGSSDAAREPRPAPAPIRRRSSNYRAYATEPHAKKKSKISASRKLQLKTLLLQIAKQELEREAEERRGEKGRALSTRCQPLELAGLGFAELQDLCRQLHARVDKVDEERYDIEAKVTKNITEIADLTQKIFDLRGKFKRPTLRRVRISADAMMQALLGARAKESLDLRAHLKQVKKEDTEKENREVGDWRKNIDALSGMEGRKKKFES

Binder: CGTGCAGTACGCCAACCTTTCTCATGCGCTGCCCCTCTTA (ssDNA, 5'-amine-spacer 18-spacer 18) [primary (capture) aptamer]
- binding result: binds
